In patent publication US20190382498A1:

Target: mutant membrane-bound TNFα on stably transfected CHO cells (B-220 cells) (UniProt P01375)
Assay: FACS, anti-CD19 beads with TNFα-transfected CHO cells

Sequence of UniProt P01375 (P01375 whole entry, change not shown): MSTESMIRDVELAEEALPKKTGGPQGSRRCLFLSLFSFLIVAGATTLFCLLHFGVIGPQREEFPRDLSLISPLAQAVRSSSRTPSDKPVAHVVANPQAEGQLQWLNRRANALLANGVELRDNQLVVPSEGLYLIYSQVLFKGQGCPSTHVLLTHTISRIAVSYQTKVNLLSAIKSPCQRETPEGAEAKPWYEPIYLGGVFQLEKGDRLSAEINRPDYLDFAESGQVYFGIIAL

**Q.** What does the source list for “APC-labeled unrelated antibody (anti-CD19) coated on beads”?
**A.** #Events (CHO cells bound to anti-CD19 beads, gate P4): 6 events; #Events (unbound beads, gate P2): 558 events; % Parent (gate P4): 0.1%; % Total (gate P4): 0.1%
